According to US20230257479A1 (Genmab, published 2023):

T1: human 5T4ECDHis (mature protein of SEQ ID NO: 99) (human, UniProt Q13641 32-355)
T1 construct: ECD of human 5T4 (aa 1-355 of Uniprot Q13641) with C-terminal His tag; residues 1-31 are the signal peptide; also called ECD of human 5T4 with a C-terminal His tag
T1 sequence: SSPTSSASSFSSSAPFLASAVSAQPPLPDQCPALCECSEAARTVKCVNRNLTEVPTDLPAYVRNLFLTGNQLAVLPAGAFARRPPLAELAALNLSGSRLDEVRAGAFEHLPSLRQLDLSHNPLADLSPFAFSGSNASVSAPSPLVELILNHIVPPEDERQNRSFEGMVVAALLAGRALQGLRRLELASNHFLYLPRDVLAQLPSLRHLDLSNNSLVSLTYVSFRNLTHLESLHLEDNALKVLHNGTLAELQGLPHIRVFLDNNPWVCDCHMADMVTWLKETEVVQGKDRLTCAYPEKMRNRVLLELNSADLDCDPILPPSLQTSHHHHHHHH

T2: recombinant cynomolgus monkey 5T4 protein (Cusabio; cat. no. CSB-MP024093MOV) (cynomolgus monkey, UniProt Q4R8Y9 35-355)
T2 construct: extracellular domain; Bought protein; also called cynomolgus 5T4; cynomolgus monkey 5T4 extracellular domain
T2 sequence (looked up): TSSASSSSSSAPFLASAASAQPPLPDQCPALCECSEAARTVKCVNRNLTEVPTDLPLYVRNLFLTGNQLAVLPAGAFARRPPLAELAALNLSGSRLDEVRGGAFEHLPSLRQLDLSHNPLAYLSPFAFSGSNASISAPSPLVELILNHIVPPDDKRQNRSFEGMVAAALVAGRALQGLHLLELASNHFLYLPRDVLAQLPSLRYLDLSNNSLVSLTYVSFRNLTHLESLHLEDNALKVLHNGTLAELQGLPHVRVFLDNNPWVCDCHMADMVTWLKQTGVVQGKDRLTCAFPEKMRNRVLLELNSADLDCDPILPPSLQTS

T3: full length chicken 5T4 (SEQ ID NO: 3) on transfected HEK-293 cells (chicken)
T3 construct: Uniprot R4GM46; residues 1-27 are the signal peptide
T3 chain: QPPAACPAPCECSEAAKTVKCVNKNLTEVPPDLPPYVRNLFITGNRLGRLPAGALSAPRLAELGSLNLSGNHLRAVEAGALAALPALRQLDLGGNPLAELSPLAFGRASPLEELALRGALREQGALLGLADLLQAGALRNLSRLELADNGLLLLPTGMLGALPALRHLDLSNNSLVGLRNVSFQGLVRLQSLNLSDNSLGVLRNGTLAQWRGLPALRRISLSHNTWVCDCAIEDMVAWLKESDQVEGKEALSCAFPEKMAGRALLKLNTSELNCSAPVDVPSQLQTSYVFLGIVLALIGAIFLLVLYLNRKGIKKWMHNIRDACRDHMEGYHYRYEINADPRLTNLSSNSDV

T4: full length human 5T4 (SEQ ID NO: 1) on cells (human, UniProt Q13641 32-420)
T4 construct: Uniprot Q13641; residues 1-31 are the signal peptide; Used both for transfected HEK-293 cells and for 5T4-expressing human tumor cell lines
T4 sequence: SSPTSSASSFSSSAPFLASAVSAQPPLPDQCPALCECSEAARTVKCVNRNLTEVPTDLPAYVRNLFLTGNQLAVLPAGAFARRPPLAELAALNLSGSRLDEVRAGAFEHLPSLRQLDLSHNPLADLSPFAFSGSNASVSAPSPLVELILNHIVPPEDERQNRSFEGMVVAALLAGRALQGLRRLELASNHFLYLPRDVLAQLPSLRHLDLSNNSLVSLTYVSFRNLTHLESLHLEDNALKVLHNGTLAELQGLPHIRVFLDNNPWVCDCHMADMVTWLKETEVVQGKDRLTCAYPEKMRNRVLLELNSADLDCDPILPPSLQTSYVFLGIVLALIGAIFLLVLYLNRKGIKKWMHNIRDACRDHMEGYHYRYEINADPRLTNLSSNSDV

B1: IgG1-5T4-207-FEAR (antibody, V domains shown)
VH: QVQLQQWGAGLLKPSETLSLTCAVYGGSFSGYYWTWIRQPPGKGLEWIGEIDHSESTNYNPSLKSRVTISVDTSKNQFSLKLSSVTAADTAVYYCAGWFGELYHYYYGMDVWGQGTTVTVSS
VL: EIVLTQSPATLSLSPGERATLSCRASQSVSSYLAWYQQKPGQAPRLLIYDASNRATGIPARFSGSGSGTDFTLTISSLEPEDFAVYYCQQRSNWPLTFGGGTKVEIKR
notes: Monospecific, bivalent IgG1 FEAR
B2: IgG1-5T4-226-FEAR (antibody, V domains shown)
VH: QVQLQQWGAGLLKPSETLSLTCAVYGGSFSGYYWSWIRQPPGKGLEWIGEIDHSGSTNYNPSLKSRVTISVDTSKNQFSLKLSSVTAADTAVYYCAAWFGELWDYYYGMDVWGQGTTVTVSS
VL: EIVLTQSPATLSLSPGERATLSCRASQSVSSFLAWYQQKPGQAPRLLIYDASNRATGIPARFSGSGSGTDFTLTISSLEPEDFAVYYCQQRSNWPLTFGQGTRLEIK
notes: Monospecific, bivalent human IgG1 kappa with L234F, L235E, D265A, K409R (FEAR); also called IgG1-5T4-226-FEAR-FITC

Columns and labels:
[1] = biological target: T1, human 5T4ECDHis (mature protein of SEQ …); test: BLI cross-block; competitor (immobilised): IgG1-5T4-H8-FEAR
Procedure: (§1) Antibody cross-block analysis (epitope binning) was performed using biolayer interferometry on an Octet HTX instrument (ForteBio). 5T4 antibodies (20 µg/mL in 10 mM sodium acetate buffer pH 6.0, ForteBio) were immobilized on Amine-Reactive 2nd Generation (AR2G) biosensors (ForteBio) according to the manufacturer’s instructions. […] Next, the association response of a second 5T4 antibody (10 µg/mL) was determined for 500 s. Biosensors were regenerated by 3 times 5 s exposure to 10 mM glycine pH 2.5 followed by Sample Diluent, and the measurement was repeated with a new set of second 5T4 antibodies starting from the baseline step. Each biosensor was used four times. Measurements were performed at 30° C. using a shaker speed of 1000 rpm. Data were analyzed using Data Analysis Software v9.0.0.12 (ForteBio). The Y-axis was aligned to the association step and Savitzky-Golay filtering was applied. The response of Sample Diluent during the association step was subtracted from the association response of the second antibody in order to correct for the dissociation of 5T4ECDHis from the immobilized antibody. […] In general, responses > 0.1 nm were considered non-blocking antibody pairs (white), while responses between -0.1 and 0.1 nm were considered to be blocking antibody pairs (dark grey). […] In some cases, the data curves needed visual inspection by an expert to assign blocking, non-blocking or displacement properties to antibody pairs.

[2] = biological target: T1, human 5T4ECDHis (mature protein of SEQ …); test: BLI cross-block; competitor (immobilised): IgG1-5T4-059-FEAR
[3] = biological target: T1, human 5T4ECDHis (mature protein of SEQ …); test: BLI cross-block; competitor (immobilised): IgG1-5T4-076-FEAR
[4] = biological target: T1, human 5T4ECDHis (mature protein of SEQ …); test: BLI cross-block; competitor (immobilised): IgG1-5T4-085-FEAR
[5] = biological target: T1, human 5T4ECDHis (mature protein of SEQ …); test: BLI cross-block; competitor (immobilised): IgG1-5T4-106-FEAR
[6] = biological target: T1, human 5T4ECDHis (mature protein of SEQ …); test: BLI cross-block; competitor (immobilised): IgG1-5T4-127-FEAR
[7] = biological target: T1, human 5T4ECDHis (mature protein of SEQ …); test: BLI cross-block; competitor (immobilised): IgG1-5T4-207-FEAR
Procedure: as §1

[8] = biological target: T1, human 5T4ECDHis (mature protein of SEQ …); test: BLI cross-block; competitor (immobilised): IgG1-5T4-226-FEAR
Procedure: as §1

[9] = biological target: T1, human 5T4ECDHis (mature protein of SEQ …); test: BLI cross-block; competitor (immobilised): IgG1-5T4-A1-F405L
[10] = biological target: T1, human 5T4ECDHis (mature protein of SEQ …); test: BLI, antibody on anti-human IgG Fc Capture biosensor, antigen in solution
Procedure: (§2) Affinities of the 5T4 antibodies for recombinant 5T4 protein were determined using label-free biolayer interferometry on an Octet HTX instrument (ForteBio, Portsmouth, UK). 5T4 antibodies (1 µg/mL) were immobilized for 600 seconds on anti-human IgG Fc Capture biosensors (ForteBio). […] Data were analyzed with Data Analysis Software v9.0.0.12 (ForteBio). Values of reference wells containing only Sample Diluent during the association and dissociation steps were subtracted from values of wells containing antigen, for each antibody separately. The Y-axis was aligned to the last 10 s of the baseline and Interstep Correction alignment to dissociation as well as Savitzky-Golay filtering was applied. Responses < 0.05 nm were excluded from analysis. The data were fitted using the 1:1 model and a global full fit with 200 s association time and 1000 s or 50 s dissociation time as Window of Interest. The fit with the full dissociation time (1000 s) as Window of Interest was used by default.

[11] = biological target: T2, recombinant cynomolgus monkey 5T4 …; test: as above
Procedure: as §2

[12] = biological target: T3, full length chicken 5T4 (SEQ ID NO: 3) …; test: flow cytometry, HEK-293 cells transfected with chicken 5T4, PE secondary
Procedure: After incubation with R-Phycoerythrin (PE)-conjugated goat-anti-human IgG F(ab′)2, the mean fluorescence intensity (MFI) was determined by flow cytometry.
Cells were washed twice in staining buffer, re-suspended in 20 µL staining buffer and analyzed on an iQue screener (Intellicyt Corporation, USA). Binding curves were analyzed by non-linear regression (sigmoidal dose-response with variable slope) using GraphPad Prism V7.02 software (GraphPad Software, San Diego, CA, USA).

[13] = biological target: T4, full length human 5T4 (SEQ ID NO: 1) on …; test: flow cytometry, HEK-293 cells transfected with human 5T4, PE secondary [II)B]

Binder	corrected association response [1]	corrected association response [2]	corrected association response [3]	corrected association response [4]	corrected association response [5]	corrected association response [6]	corrected association response [7]	corrected association response [8]	corrected association response [9]	Kd [10]	koff [10]	kon [10]	Kd [11]	koff [11]	kon [11]	binding result [12]	EC50 (read off the curve) [13]
B1	-0.01 nm	0.02 nm	0.05 nm	0.08 nm	-0.03 nm	0.16 nm	-0.02 nm	-0.02 nm	0.86 nm	2.6 nM	0.00068 s⁻¹	270000 M⁻¹ s⁻¹	6.3 nM	0.00087 s⁻¹	140000 M⁻¹ s⁻¹	binds	–
B2	-0.01 nm	0.01 nm	0.05 nm	0.07 nm	-0.02 nm	0.16 nm	-0.02 nm	-0.02 nm	0.86 nm	2.5 nM	0.00081 s⁻¹	330000 M⁻¹ s⁻¹	11 nM	0.0015 s⁻¹	140000 M⁻¹ s⁻¹	binds	~0.02 mg/L
